The test system of assay [1] is Murine bone marrow derived monocytes (BMMs). In words: Direct cell binding assay, flow cytometry, murine primary cells. In kind it is cell-based, mouse. Particulars: for direct cell binding: mouse primary cells, 1 μM, 2.5 μM and 7.5 μM. As for the experimental part:
Murine bone marrow derived monocytes (BMMs) were obtained by flushing the bone marrow from the femur and tibia of WT C57BL6 mice. The cells were treated with ACK red lysis buffer (Thermo Fisher Scientific, USA) and plated on bacterial culture dishes in αMEM growth medium (Biological Industries, Israel) containing recombinant murine M-CSF (40 ng/ml) (R&D systems, USA). The cells were incubated for 3 days at 37° C. under 5% CO2 to induce monocyte adhesion and proliferation. The plates were washed with PBS, the cells were detached using a cell scraper, and 10^5 cells were transferred to each well in a 96-well plate. The cells were washed twice with 200 μl of 0.1% PBSA. Binding was determined as described for labeled M-CSFM and the M-CSFRGD proteins. For murine c-FMS expression, anti-mouse CD115 (CSF-1R) (BioLegend, USA) was used at 1:50 concentration and detected with goat anti-rat (PE) antibody (Abcam, USA). For αvβ3 integrin expression, the Alexa Fluor® 488 anti-mouse/rat CD61 (BioLegend, USA) antibody was used as previously described. Samples were analyzed with Accuri C6 flow cytometry analyzer (BD Biosciences, USA). The experiment was repeated three times at each concentration.
Assays for direct cell binding were conducted on breast cancer cell line MDA-MB-231 and murine primary cells with flow cytometer. MDA-MB-231 was used because the cells express αvβ3 integrin and c-FMS on the cell membrane, a protein expression pattern that imitates the osteoclast state just before reaching full differentiation and maturation. […] Murine primary cells that were obtained from bone marrow were tested for binding without any induction of differentiation (t=0). Such cells express high levels of c-FMS and low levels of αvβ3 integrin (FIGS. 11A and 11B), a state that imitates an early osteoclast differentiation stage.
(In general: In flow cytometry, cells or beads pass a laser one at a time.)

Another assay addresses human c-FMS (Homo sapiens, UniProt P07333). In words: c-FMS phosphorylation assay in CD14+ monocytes (western blot). Further details: host or cells: human peripheral blood CD14+ monocytes. Particulars: CD14+ cells; 0.5 nM human M-CSFWT + 100 nM variant. In kind it is cell-based. As for the experimental part: Phosphorylation assay—The experiment was performed on two cell types, BMMs and human peripheral blood CD14^+ monocytes, as follows: (i) BMMs from wild-type C57BL6 mice were purified by flushing the bone marrow from the femur and tibia as previously described (Levaot, N., Simoncic, P. D., Dimitriou, I.D., Scoffer, A., La Rose, J., Ng, A. H. M. et al. (2011) J. Clin. Invest. 121, 3244-3257). The cells were treated with ACK red cells lysis buffer (ThermoFisher Scientific, USA) and grown in complete α-MEM growth medium (Sigma-Aldrich, USA) containing 10% fetal bovine serum (FBS) (selected to not contain LPS to prevent macrophage differentiation), penicillin, streptomycin and L-glutamine. Recombinant murine M-CSF was added at a concentration of 40 ng/ml (Peprotech, Israel) for three days at 37° C. to induce adhesion and proliferation of monocytes. Then, 7×10^5 cells were transferred into a 6-well plate with complete α-MEM and 20 ng/ml murine M-CSF and RANKL (R&D Systems, USA) for 48 h. (ii) CD 14^+ monocytes (Lonza, Switzerland) were grown in complete α-MEM medium for five days in the presence of human M-CSF (20 ng/mL). […] The images were quantified using ImageJ. The quantified intensity values of the phosphorylated c-FMS for each sample were divided by the total c-FMS intensity, and then by the β-actin expression intensity. […]
(In general: A western blot detects proteins with antibodies after separation by electrophoresis.)

The values that follow come from patent US11976099B2, “Compositions and methods for treatment of bone associated diseases” (THE NATIONAL INSTITUTE FOR BIOTECHNOLOGY IN THE NEGEV LTD., priority 2016, dated 2024).

Changes are numbered by the printed parent chain. Names may count otherwise.

Chain of human c-FMS (P07333 20-972): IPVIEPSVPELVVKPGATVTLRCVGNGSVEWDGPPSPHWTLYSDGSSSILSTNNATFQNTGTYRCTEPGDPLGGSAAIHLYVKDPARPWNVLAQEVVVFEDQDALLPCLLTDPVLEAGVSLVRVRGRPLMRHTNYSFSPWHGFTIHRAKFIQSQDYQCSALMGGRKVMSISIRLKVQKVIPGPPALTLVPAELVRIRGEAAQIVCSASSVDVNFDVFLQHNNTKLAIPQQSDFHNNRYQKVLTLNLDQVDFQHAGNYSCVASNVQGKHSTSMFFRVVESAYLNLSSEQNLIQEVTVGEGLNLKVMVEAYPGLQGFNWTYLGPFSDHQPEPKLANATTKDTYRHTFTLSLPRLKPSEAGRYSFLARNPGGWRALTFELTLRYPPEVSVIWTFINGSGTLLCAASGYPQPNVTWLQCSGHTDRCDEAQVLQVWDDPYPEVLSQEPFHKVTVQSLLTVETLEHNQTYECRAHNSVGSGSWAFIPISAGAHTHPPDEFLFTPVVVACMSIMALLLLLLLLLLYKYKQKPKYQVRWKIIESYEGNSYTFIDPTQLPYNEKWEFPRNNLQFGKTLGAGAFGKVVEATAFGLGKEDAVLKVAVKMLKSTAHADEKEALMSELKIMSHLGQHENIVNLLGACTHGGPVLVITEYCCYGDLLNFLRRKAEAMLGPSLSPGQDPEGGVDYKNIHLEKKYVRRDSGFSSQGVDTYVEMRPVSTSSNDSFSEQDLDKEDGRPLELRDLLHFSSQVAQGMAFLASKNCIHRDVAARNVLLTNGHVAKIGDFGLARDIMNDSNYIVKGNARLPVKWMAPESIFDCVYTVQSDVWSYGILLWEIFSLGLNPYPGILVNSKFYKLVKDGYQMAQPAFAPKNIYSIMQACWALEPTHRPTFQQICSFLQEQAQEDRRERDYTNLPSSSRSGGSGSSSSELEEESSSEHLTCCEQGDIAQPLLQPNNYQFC

B1: 5.6: bispecific M-CSFRGD variant from sort five; M-CSFM loop replaced by XXXRGDXXX motif; binds c-FMS and αvβ3 integrin (protein)
chain: EEVSEYCSHMIGSGHLQSLQRLIDTYPRGDMCSITFEFVDQEQLKDPVCYLKKAFLLVQDIMEDTMRFRDNTPNAIAIVQLQELSLRLKSCFTKDYEEHDKACVRTFYETPLQLLEKVKNVFNETKNLLDKDWNIFSKNCNNSFAECSSQGHERQSEGS
modifications: left off: small tags and cut ends
Consider B1, for which the direct cell binding entry in assay [1] is on record as “binding in a dose dependent manner”.

B2: M-CSFM: 158 amino acid M-CSF with cysteine at position 31 replaced by serine (SEQ ID NO: 2) (protein)
chain: EEVSEYCSHMIGSGHLQSLQRLIDSQMETSSQITFEFVDQEQLKDPVCYLKKAFLLVQDIMEDTMRFRDNTPNAIAIVQLQELSLRLKSCFTKDYEEHDKACVRTFYETPLQLLEKVKNVFNETKNLLDKDWNIFSKNCNNSFAECSSQGHERQSEGS
In the case of B2, the direct cell binding result in assay [1] is “binding in a dose dependent manner”. Further, the relative cell binding result in assay [1] (no induction of differentiation (t=0)) was “stronger cell binding than 5.6 and 4.22”. For the same molecule, the c-FMS phosphorylation level entry in the assay with human c-FMS was “acted as an agonist, inducing phosphorylation”.

B3: M-CSFC31S,M27R: M-CSF double mutant containing both C31S and M27R; monomeric, monospecific c-FMS antagonist (protein)
chain: B2 chain with M27R
With B3, in the assay with human c-FMS, the c-FMS phosphorylation level entry is reported as “decreased phosphorylation of c-FMS”.
